{
  "source": "paper PMC8629394",
  "about": "“Anaerobic peroxisomes in Entamoeba histolytica metabolize myo-inositol” (PLoS Pathogens, 2021)",
  "key": {"[1]": {"biological_target": "the molecule itself", "assay": "SEC-MALS; enzymatically active myo-IDH, 0.5-2 mg/ml, Agilent Biosec-3 column, 0.3 ml/min, 50 mM phosphate buffer pH 7.0, 300 mM NaCl, 15°C; miniDAWN light scattering, refractive index and UV detectors"}, "[2]": {"substrate": "O[C@H]1[C@H](O)[C@@H](O)[C@H](O)[C@@H](O)[C@H]1O", "assay": "purified protein", "format": "biochemical, Entamoeba histolytica", "conditions": "1 mM NAD+, 10 mM sodium pyrophosphate pH 9, room temperature; pH 9.0"}, "[3]": {"substrate": "O=C1[C@@H](O)[C@H](O)[C@@H](O)[C@H](O)[C@H]1O", "assay": "purified protein", "format": "biochemical, Entamoeba histolytica", "conditions": "reverse reaction, NADH as co-substrate (concentration not stated)"}, "[4]": {"substrate": "NC(=O)c1ccc[n+]([C@@H]2O[C@H](COP(=O)(O)OP(=O)(O)OC[C@H]3O[C@@H](n4cnc5c(N)ncnc54)[C@H](O)[C@@H]3O)[C@@H](O)[C@H]2O)c1", "assay": "purified protein", "format": "biochemical, Entamoeba histolytica", "conditions": "12.5 mM myo-inositol, 10 mM sodium pyrophosphate pH 9, room temperature; pH 9.0; varied: cofactor"}, "[5]": {"substrate": "NC(=O)C1=CN([C@@H]2O[C@H](COP(=O)(O)OP(=O)(O)OC[C@H]3O[C@@H](n4cnc5c(N)ncnc54)[C@H](O)[C@@H]3O)[C@@H](O)[C@H]2O)C=CC1", "assay": "purified protein", "format": "biochemical, Entamoeba histolytica", "conditions": "reverse reaction, keto-2-inositol as presumed co-substrate (concentration not stated); varied: cofactor"}, "[6]": {"substrate": "O[C@H]1[C@H](O)[C@@H](O)[C@H](O)[C@@H](O)[C@@H]1O", "assay": "purified protein", "format": "biochemical, Entamoeba histolytica", "conditions": "1 mM NAD+, 10 mM sodium pyrophosphate pH 9, room temperature; pH 9.0"}, "[7]": {"substrate": "NC(=O)c1ccc[n+]([C@@H]2O[C@H](COP(=O)(O)OP(=O)(O)OC[C@H]3O[C@@H](n4cnc5c(N)ncnc54)[C@H](OP(=O)(O)O)[C@@H]3O)[C@@H](O)[C@H]2O)c1", "assay": "purified protein", "format": "biochemical, Entamoeba histolytica", "conditions": "12.5 mM myo-inositol, 10 mM sodium pyrophosphate pH 9, room temperature; pH 9.0; varied: cofactor"}},
  "note": "Where “and” joins values, the source holds several entries; their conditions need not be identical. Equal values may be shown once.",
  "data": [
    {"protein": "recombinant 6xHis-tagged E. histolytica myo-inositol dehydrogenase (myo-IDH) (enzyme, Entamoeba histolytica, UniProt C4LVW1 1-316, looked up, myo-inositol dehydrogenase (myo-IDH, EC 1.1.1.18) of Entamoeba histolytica, gene EHI_125740; theoretical weight 36.4 kDa including the 6x-His tag; the natural protein ends in a PTS1 tripeptide; also called putative inositol dehydrogenase; EHI_125740; source: E. coli BL21 Rosetta, pET42b, purified (Ni-NTA agarose, native conditions, imidazole)) MQSNKVRICLCGTGRLGSFRASLFIESQDIELVGVVEPFRVCQSVLDRPNIKIFKTVEEINIPIDGIWISTPTKFHLQTIKLASKKVKHIYCEKPIASTPEEVKEAYETCRKNGVSLHCGWMRRRDPGYQSIKEYLVSHNVSIQRAEFHSFDWPLVPPEFLKTLGNIFTDLMCHDFNLIMYYMNNTLPKYVTAVGIDGGAGVWDSATASLEYPNNVVLTIIATRNGNKVYDNSLTVLTSDSHILECGKEPENLTETFMKRHEKNFKKELPFFANIIRNNGTSGDVLSCVNTSILIQAATRSATLGGKRIPLVIPKL", "values": [
      {"measurement": "stoichiometry N", "setting": "[1]", "result": "2 and 3"},
      {"measurement": "Km", "setting": "[2]", "result": "44 ± 4", "unit": "µM"},
      {"measurement": "Vmax", "setting": "[2]", "result": 5.45, "unit": "µmol/min/mg"},
      {"measurement": "Km", "setting": "[3]", "result": "322 ± 34", "unit": "µM"},
      {"measurement": "Vmax", "setting": "[3]", "result": 4.41, "unit": "µmol/min/mg"},
      {"measurement": "Km", "setting": "[4]", "result": "38 ± 4", "unit": "µM"},
      {"measurement": "Vmax", "setting": "[4]", "result": 1, "unit": "µmol/min/mg"},
      {"measurement": "Km", "setting": "[5]", "result": "9 ± 0", "unit": "µM"},
      {"measurement": "Vmax", "setting": "[5]", "result": 1.64, "unit": "µmol/min/mg"},
      {"measurement": "Km", "setting": "[6]", "result": "229 ± 20", "unit": "µM"},
      {"measurement": "Vmax", "setting": "[6]", "result": 6.2, "unit": "µmol/min/mg"},
      {"measurement": "Km", "setting": "[7]", "result": "1201 ± 532", "unit": "µM"},
      {"measurement": "Vmax", "setting": "[7]", "result": 0.826, "unit": "µmol/min/mg"}
    ]}
  ]
}
